From US11834553B2, “Alkoxylation methods” (priority 2009, dated 2023)

What was measured:
[1] = Stress stability studies of 4-arm-PEG-Gly-Irino-20K (Example 3); format: physicochemical; conditions: summary of stress stability studies
Description: The product formed in Example 1, 4-arm-PEG-Gly-Irino-20K, compound 5, (approximately 1-2 g) was weighed into PEG PE ‘whirl top’ bags and placed into another ‘whirl top’ bag in order to simulate the API packaging conditions. In one study (results shown in FIG. 1), samples were placed in an environmental chamber at 25° C./60% RH for 4 weeks. In another study, samples were placed in an environmental chamber at 40° C./75% RH for up to several months (results shown in FIG. 2 and FIG. 3). Samples were taken and analyzed on a periodic basis over the course of the studies.

[2] = K2CO3 in CH3OH, 20° C., after 45 minutes
Description: (§1) Experiments were performed to determine the fate of the irinotecan-containing PEG species in 4-arm-PEG-Gly-Irino-20K under transesterification (K2CO3 in CH3OH, 20° C.) and aqueous hydrolysis (pH 10, 20° C.) conditions.

[3] = pH 10, 20° C., within 24 hours
Description: as §1

## pentaerythritolyl-4-arm-(PEG-1-methylene-2-oxo-vinylamino acetate linked-irinotecan) [4-arm-PEG-Gly-Irino-20K]
[1]
  overall stability compared with free base and hydrochloride salt: greater stability than either the free base or hydrochloride salt
[2]
  transesterification reaction, completion: > 99%
[3]
  aqueous hydrolysis reaction, completion: > 99%
